Data as given in patent US20220291215A1.

Legend:
[1] = molecular target: DP4/MAGE-A3243-258 TCR, clone R12C9
[2] = molecular target: DP4/MAGE-A3243-258 TCR, clone R12C9; remark: listed apart in the source

For Control (peptide-MHC), the % dimer+ CD4+ cells [1] was 0.4% and the % dimer+ Vβ22+ cells [2] was 0.1%.
